Reference: patent US20210270842A1

Target: plasma kallikrein (human) (UniProt P03952)
Test: cell-based or functional assay

Chain of plasma kallikrein (human) (P03952 20-638 limits assumed): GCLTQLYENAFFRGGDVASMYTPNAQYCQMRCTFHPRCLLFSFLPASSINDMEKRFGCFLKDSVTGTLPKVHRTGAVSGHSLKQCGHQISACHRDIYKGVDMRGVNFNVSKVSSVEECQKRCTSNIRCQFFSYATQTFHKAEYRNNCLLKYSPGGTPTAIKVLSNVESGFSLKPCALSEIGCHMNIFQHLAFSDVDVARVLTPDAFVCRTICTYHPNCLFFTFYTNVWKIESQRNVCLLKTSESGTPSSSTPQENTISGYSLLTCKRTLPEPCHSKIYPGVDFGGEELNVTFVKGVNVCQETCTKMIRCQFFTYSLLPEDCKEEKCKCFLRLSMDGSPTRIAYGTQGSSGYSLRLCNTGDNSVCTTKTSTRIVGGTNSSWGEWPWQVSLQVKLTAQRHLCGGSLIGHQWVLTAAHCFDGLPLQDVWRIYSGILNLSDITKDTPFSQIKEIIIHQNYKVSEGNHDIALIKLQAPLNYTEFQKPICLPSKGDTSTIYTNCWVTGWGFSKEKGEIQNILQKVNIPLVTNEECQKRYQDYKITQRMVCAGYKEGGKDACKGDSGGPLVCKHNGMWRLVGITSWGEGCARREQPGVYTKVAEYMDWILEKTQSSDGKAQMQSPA

IC50 for lanadelumab inhibition of 2-chain HMWK generation (FXIIa-activated citrated plasma, Western blot and sandwich ELISA): 212 nM
B1: lanadelumab (antibody, V domains shown)
VH: EVQLLESGGGLVQPGGSLRLSCAASGFTFSHYIMMWVRQAPGKGLEWVSGIYSSGGITVYADSVKGRFTISRDNSKNTLYLQMNSLRAEDTAVYYCAYRRIGVPRRDEFDIWGQGTMVTVSS
VL: DIQMTQSPSTLSASVGDRVTITCRASQSISSWLAWYQQKPGKAPKLLIYKASTLESGVPSRFSGSGSGTEFTLTISSLQPDDFATYYCQQYNTYWTFGQGTKVEI
